{
  "source": "patent US6906176B2",
  "about": "“Enterokinase cleavage sequences” (Dyax Corp., priority 2000, dated 2005)",
  "assay_type_in_all_cases": "biochemical",
  "key": {"[1]": {"target": "T1, recombinant light chain enterokinase (Bos taurus, UniProt P98072)", "T1 construct": "enterokinase cleavage using 30 nM recombinant light chain enterokinase (Novagen); purchased Novagen, Madison, Wis", "T1 sequence (P98072 801-1035 limits assumed)": "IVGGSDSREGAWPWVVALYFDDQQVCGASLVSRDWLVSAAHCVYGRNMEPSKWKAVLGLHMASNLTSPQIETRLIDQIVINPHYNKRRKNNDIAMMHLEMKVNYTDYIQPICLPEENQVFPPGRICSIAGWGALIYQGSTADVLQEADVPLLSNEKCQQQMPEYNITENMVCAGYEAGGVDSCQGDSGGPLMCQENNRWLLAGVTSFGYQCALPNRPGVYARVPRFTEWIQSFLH", "assay": "Cleavage site test: digestion of synthetic test peptides to completion, HPLC and mass spectroscopy", "details": "for recovered product, product peak 2 / recovered product, product peak 1: 60 to 100 μg peptide digested to completion (36-48 hrs) with 20U enterokinase, reverse phase HPLC, electrospray MS; for extent of enterokinase digestion: 36-48 hrs with 20U enterokinase, HPLC", "procedure": "To further test the predicted cleavage site as well as the rates and extent of cleavage, seven test peptides shown in Table 6 were chemically synthesized, contacted with enterokinase, and analyzed by HPLC and mass spectrometric analysis.\nTo test the predicted cleavage site, i.e., following the acid-base dipeptide motif, 60 to 100 μg of each test peptide was digested to completion (36-48 hrs) with 20U of recombinant light chain enterokinase (Novagen) and analyzed by reverse phase HPLC. Product peaks were eluted with a water/acetonitrile (H2O/ACN) gradient and identified by electrospray mass spectroscopy.\n“% ACN” estimates the position in the H2O/Acetonitrile gradient at which the indicated cleavage fragment eluted. The expected product peaks for GDDDDK (residue 1-6 SEQ ID NO:197) and NKAKDR (residues 1-6, SEQ ID NO:201) were not detected by HPLC, but the cleavage site could be determined from analyzing the alternate product peak, i.e., the peptide to the C-terminal side of the cleavage site."}, "[2]": {"target": "T1, recombinant light chain enterokinase", "assay": "Relative rate of cleavage of synthetic peptides by HPLC", "details": "about 500 μM peptide; for Cleavage Rate: 50 nM recombinant light chain enterokinase; for cleavage rate compared with the other peptides (in words): 50 nM enterokinase", "procedure": "Peptides were digested with enterokinase and aliquots tested at timed intervals by HPLC to quantitate the extent of cleavage. For each test peptide, about 500 μM of peptide were digested with 50 nM of recombinant light chain enterokinase. The seven synthetic peptides were compared with a commercially available standard EK cleavage substrate, GDDDDK-β-naphthylamine (GDDDDK-βNA, SEQ ID NO:203; from BACHEM, King of Prussia, Pa.), having a fluorescent leaving group that increases in fluorescence when it is cleaved."}, "[3]": {"target": "T1, recombinant light chain enterokinase", "assay": "Relative rate of cleavage of synthetic peptides by HPLC", "details": "relative to GDDDDK-βNA; peptides tested individually at 500 μM"}, "[4]": {"target": "T2, enterokinase (Bos taurus, UniProt P98072)", "T2 construct": "provide a substrate specifically recognized and cleaved by recombinant light chain enterokinase", "T2 sequence (P98072 801-1035 limits assumed)": "as above", "assay": "Substrate competition with reference peptide GDDDDK-βNA", "details": "for reference peptide rate (Vb): rate of reference peptide GDDDDK-βNA 250 μM in competition with the test peptide 250 μM; for ratio (Va/Vb): test peptide cleavage rate to reference peptide cleavage rate, 250 μM each; for ratio kcat/Km, times greater than that of the reference peptide: tested in competition at 250 μM", "procedure": "Rates of substrate hydrolysis depends on several factors, namely, concentration of enzyme and substrate, Km (Michaelis constant) values, and kcat (catalytic rate constant) values. One way to compare the relative efficiencies with which a protease hydrolyses two substrates (a and b) is to simultaneously incubate both substrates in a single reaction with the enzyme and measure the rates of product formation for each (Va and Vb). If the total product formation is low (<10%), the starting concentrations of the two competing substrates are the same, and the reaction is performed at steady-state: Va/Vb=(kcat/Km)a/(kcat/Km)b Relative ratios of kcat/Km can be determined from relative rates of substrate hydrolysis.\nTo compare the relative efficiency of hydrolysis by enterokinase, reference peptide (GDDDDK-βNA, 250 μM, SEQ ID NO:203) was incubated simultaneously with one of the test peptides (250 μM), treated with enterokinase, and the relative rate of product formation measured. The products were quantitated by HPLC and initial cleavage rates calculated."}, "[5]": {"target": "T1, recombinant light chain enterokinase", "assay": "Phage ELISA kinetics of enterokinase cleavage of phage isolates", "details": "streptavidin-bound phage, 30 nM or 130 nM enterokinase, 30 minutes", "procedure": "FIG. 1 and FIG. 2 show the time course of enterokinase cleavage of phage isolates from five rounds of screening a substrate phage library. The tested isolates were those having recurring sequences among 90 sequenced isolates. The isolates are tested in comparison with an isolate (5-H11) containing the known enterokinase cleavage sequence DDDDK and an unselected phage displaying a polypeptide not recognized by enterokinase.\nPhage displaying each of the sequences shown in Table 5 were tested individually for kinetics of enterokinase cleavage using a phage ELISA. Streptavidin-bound phage were treated with either 30 nM or 130 nM enterokinase for 30 minutes. The time courses of phage release are shown in FIG. 1 (release at 30 nM EK) and FIG. 2 (release at 130 nM EK). Phage from the unselected substrate library were used as a control, i.e., isolate 5-F08. (SEQ ID NO:196)."}},
  "note": "Marks after values point to notes of the source that are not given here.",
  "data": [
    {"substance": "NKAKDRMFI (synthetic enterokinase cleavage sequence)", "values": [
      {"measurement": "recovered product, product peak 2", "setting": "[1]", "result": "MFI"},
      {"measurement": "Cleavage Rate", "setting": "[2]", "result": "~0.26* nmole/min."},
      {"measurement": "rate relative to standard substrate", "setting": "[3]", "result": 0.6}
    ]},
    {"substance": "GNYTDRMFI (synthetic enterokinase cleavage sequence)", "values": [
      {"measurement": "recovered product, product peak 1", "setting": "[1]", "result": "GNYTDR"},
      {"measurement": "recovered product, product peak 2", "setting": "[1]", "result": "MET"},
      {"measurement": "cleavage rate compared with the other peptides (in words)", "setting": "[2]", "result": "cleaved significantly more rapidly than the two control peptides"},
      {"measurement": "Cleavage Rate", "setting": "[2]", "result": 0.81, "unit": "nmol/min"},
      {"measurement": "reference peptide rate (Vb)", "setting": "[4]", "result": 0.011},
      {"measurement": "ratio (Va/Vb)", "setting": "[4]", "result": 3.5},
      {"measurement": "ratio kcat/Km, times greater than that of the reference peptide", "setting": "[4]", "result": 3.5},
      {"measurement": "rate relative to standard substrate", "setting": "[3]", "result": 1.8}
    ]},
    {"substance": "DINDDRSLF (synthetic enterokinase cleavage sequence)", "values": [
      {"measurement": "recovered product, product peak 1", "setting": "[1]", "result": "DINDDR"},
      {"measurement": "recovered product, product peak 2", "setting": "[1]", "result": "SLF"},
      {"measurement": "cleavage rate compared with the other peptides (in words)", "setting": "[2]", "result": "cleaved significantly more rapidly than the two control peptides"},
      {"measurement": "Cleavage Rate", "setting": "[2]", "result": "1/43"},
      {"measurement": "reference peptide rate (Vb)", "setting": "[4]", "result": 0.006},
      {"measurement": "ratio (Va/Vb)", "setting": "[4]", "result": 30},
      {"measurement": "ratio kcat/Km, times greater than that of the reference peptide", "setting": "[4]", "result": 30},
      {"measurement": "rate relative to standard substrate", "setting": "[3]", "result": 3.1}
    ]},
    {"substance": "DINDDRSLFSESS (synthetic enterokinase cleavage sequence) [Isolate 5-H04, round 5 phage isolate]", "values": [
      {"measurement": "enterokinase cleavage rate of phage isolate (phage release)", "setting": "[5]", "result": "most readily cut"}
    ]},
    {"substance": "AVLSNVMFT (AVLSNVMFI; negative control in EK cleavage experiment) [AVLSNVMFII, negative control test peptide, reference compound]", "values": [
      {"measurement": "extent of enterokinase digestion", "setting": "[1]", "result": "not cleaved at all"},
      {"measurement": "extent of enterokinase digestion", "setting": "[1]; listed as negative control peptide", "result": "No cleavage"}
    ]},
    {"substance": "GNYTDRYFI (commercial synthetic enterokinase cleavage substrate)", "values": [
      {"measurement": "recovered product, product peak 1", "setting": "[1]", "result": "GNYTDR"},
      {"measurement": "recovered product, product peak 2", "setting": "[1]", "result": "YFI"},
      {"measurement": "Cleavage Rate", "setting": "[2]", "result": 0.24, "unit": "nmol/min"},
      {"measurement": "rate relative to standard substrate", "setting": "[3]", "result": 0.5}
    ]},
    {"substance": "MGDDDDKIYVYKT (synthetic enterokinase cleavage sequence) [Isolate 5-H11, reference compound]", "values": [
      {"measurement": "enterokinase cleavage rate of phage isolate (phage release)", "setting": "[5]", "result": "slower than for at least three of the other isolates"}
    ]},
    {"substance": "GNYTDRRFI (synthetic enterokinase cleavage sequence)", "values": [
      {"measurement": "recovered product, product peak 1", "setting": "[1]", "result": "GNYTDR"},
      {"measurement": "recovered product, product peak 2", "setting": "[1]", "result": "RFI"},
      {"measurement": "Cleavage Rate", "setting": "[2]", "result": 0.18, "unit": "nmol/min"},
      {"measurement": "rate relative to standard substrate", "setting": "[3]", "result": 0.4}
    ]},
    {"substance": "GDDDDKIYV (natural enterokinase cleavage sequence) [reference compound]", "values": [
      {"measurement": "recovered product, product peak 2", "setting": "[1]", "result": "IYV"},
      {"measurement": "cleavage rate compared with the other peptides (in words)", "setting": "[2]", "result": "cleaved at nearly equal rates and more rapidly than the remaining three peptides tested"},
      {"measurement": "Cleavage Rate", "setting": "[2]", "result": 0.34, "unit": "nmol/min"},
      {"measurement": "reference peptide rate (Vb)", "setting": "[4]", "result": 0.027},
      {"measurement": "ratio (Va/Vb)", "setting": "[4]", "result": 1.0},
      {"measurement": "rate relative to standard substrate", "setting": "[3]", "result": 0.7}
    ]},
    {"substance": "GDDDDK-β-naphthylamine [GDDDDK-βNA, reference compound]", "values": [
      {"measurement": "cleavage rate compared with the other peptides (in words)", "setting": "[2]", "result": "cleaved at nearly equal rates and more rapidly than the remaining three peptides tested"},
      {"measurement": "Cleavage Rate", "setting": "[2]", "result": 0.46, "unit": "nmol/min"},
      {"measurement": "rate relative to standard substrate", "setting": "[3]", "result": "(1.0)"}
    ]}
  ]
}
